Assay results published in paper PMC2212017.

Target: T1, TRPV2 (transient receptor potential vanilloid 2), endogenous in RBL2H3 mast cells (rat (endogenous in RBL2H3)), Q9WUD2
T1 chain: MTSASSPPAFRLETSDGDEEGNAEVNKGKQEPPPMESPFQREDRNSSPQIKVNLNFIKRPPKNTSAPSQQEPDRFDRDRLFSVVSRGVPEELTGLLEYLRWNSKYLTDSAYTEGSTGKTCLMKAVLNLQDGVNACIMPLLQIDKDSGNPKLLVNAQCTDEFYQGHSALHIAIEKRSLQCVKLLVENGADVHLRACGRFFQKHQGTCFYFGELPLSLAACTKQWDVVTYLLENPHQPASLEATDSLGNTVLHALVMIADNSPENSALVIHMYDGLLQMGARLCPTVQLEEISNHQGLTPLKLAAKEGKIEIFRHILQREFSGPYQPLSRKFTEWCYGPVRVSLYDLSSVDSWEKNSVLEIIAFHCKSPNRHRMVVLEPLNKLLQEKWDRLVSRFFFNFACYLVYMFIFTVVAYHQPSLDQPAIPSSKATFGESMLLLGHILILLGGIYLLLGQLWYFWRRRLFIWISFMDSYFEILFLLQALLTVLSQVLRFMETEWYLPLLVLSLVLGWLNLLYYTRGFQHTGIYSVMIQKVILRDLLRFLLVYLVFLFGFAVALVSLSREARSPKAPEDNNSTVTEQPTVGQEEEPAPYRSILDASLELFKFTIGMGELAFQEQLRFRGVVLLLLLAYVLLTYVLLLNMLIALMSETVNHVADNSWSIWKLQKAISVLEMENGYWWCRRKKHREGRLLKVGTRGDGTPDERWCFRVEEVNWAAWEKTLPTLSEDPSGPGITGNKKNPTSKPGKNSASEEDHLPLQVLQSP
Test: native gel or EMSA
Conditions: remark: other sources report otherwise

stoichiometry N: 4
B1: TRPV2 (transient receptor potential vanilloid 2), endogenous in RBL2H3 mast cells, Q9WUD2 1-761 (natural protein)
chain: MTSASSPPAFRLETSDGDEEGNAEVNKGKQEPPPMESPFQREDRNSSPQIKVNLNFIKRPPKNTSAPSQQEPDRFDRDRLFSVVSRGVPEELTGLLEYLRWNSKYLTDSAYTEGSTGKTCLMKAVLNLQDGVNACIMPLLQIDKDSGNPKLLVNAQCTDEFYQGHSALHIAIEKRSLQCVKLLVENGADVHLRACGRFFQKHQGTCFYFGELPLSLAACTKQWDVVTYLLENPHQPASLEATDSLGNTVLHALVMIADNSPENSALVIHMYDGLLQMGARLCPTVQLEEISNHQGLTPLKLAAKEGKIEIFRHILQREFSGPYQPLSRKFTEWCYGPVRVSLYDLSSVDSWEKNSVLEIIAFHCKSPNRHRMVVLEPLNKLLQEKWDRLVSRFFFNFACYLVYMFIFTVVAYHQPSLDQPAIPSSKATFGESMLLLGHILILLGGIYLLLGQLWYFWRRRLFIWISFMDSYFEILFLLQALLTVLSQVLRFMETEWYLPLLVLSLVLGWLNLLYYTRGFQHTGIYSVMIQKVILRDLLRFLLVYLVFLFGFAVALVSLSREARSPKAPEDNNSTVTEQPTVGQEEEPAPYRSILDASLELFKFTIGMGELAFQEQLRFRGVVLLLLLAYVLLTYVLLLNMLIALMSETVNHVADNSWSIWKLQKAISVLEMENGYWWCRRKKHREGRLLKVGTRGDGTPDERWCFRVEEVNWAAWEKTLPTLSEDPSGPGITGNKKNPTSKPGKNSASEEDHLPLQVLQSP
